Measurements: US20110082078

Tested on: ZFP-TF 14172-p65 (rat GDNF activator) (synthetic)
Assay: cell_activity
Details: GDNF mRNA increase vs AAV-GFP in rat eye; also activates in rat striatal neurons (FIG. 5)

GGGGGCGCGGAACCGGGA (double strand) [rat GDNF target site (SEQ ID NO:55)]
activity: 5 fold
